Substitutions are numbered along the chain they refer to.
Key:
rPEDF variant S24A = system: T1, rPEDF variant S24A
T1 sequence: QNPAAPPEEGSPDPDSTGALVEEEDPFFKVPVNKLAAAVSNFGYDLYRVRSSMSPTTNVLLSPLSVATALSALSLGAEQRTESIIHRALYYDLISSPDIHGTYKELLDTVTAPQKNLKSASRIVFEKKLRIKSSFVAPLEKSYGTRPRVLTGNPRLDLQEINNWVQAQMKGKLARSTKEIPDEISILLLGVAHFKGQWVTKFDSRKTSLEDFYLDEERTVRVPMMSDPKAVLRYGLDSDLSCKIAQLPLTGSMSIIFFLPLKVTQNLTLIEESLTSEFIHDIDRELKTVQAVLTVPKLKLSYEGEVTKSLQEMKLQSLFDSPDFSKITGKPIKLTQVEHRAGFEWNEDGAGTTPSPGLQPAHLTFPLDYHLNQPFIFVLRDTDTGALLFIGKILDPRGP

rPEDF variant S114E = system: T2, rPEDF variant S114E
T2 sequence: T1 sequence with A5S, S95E

rPEDF variant S24E = system: T3, rPEDF variant S24E
T3 sequence: T1 sequence with A5E

[1] = system: T4, rPEDF double variant S24,114E
T4 sequence: T1 sequence with A5E, S95E

[2] = system: T5, recombinant PEDF (recombinant wild-type human pigment epithelium derived factor)
T5 sequence: T1 sequence with A5S

rPEDF variant S114A = system: T6, rPEDF variant S114A
T6 sequence: T1 sequence with A5S, S95A

[3] = system: T7, rPEDF double variant S24,114A
T7 sequence: T1 sequence with S95A

[4] = system: T8, PEDF purified from human plasma
T8 sequence: T1 sequence with A5S

rPEDF variant S227E = system: T9, rPEDF variant S227E
T9 sequence: T1 sequence with A5S, S208E

rPEDF variant S227A = system: T10, rPEDF variant S227A
T10 sequence: T1 sequence with A5S, S208A

Substance: recombinant human CK2 (casein kinase 2)
- in vitro CK2 phosphorylation (autoradiography) (rPEDF variant S24A): Mutation of S24A significantly reduced CK2 phosphorylation
- in vitro CK2 phosphorylation (autoradiography) (rPEDF variant S114E): both S114E and S24,114E mutations significantly increased CK2 phosphorylation compared with CK2 phosphorylation of rPEDF
- in vitro CK2 phosphorylation (autoradiography) (rPEDF variant S24E): the S24E mutation reduced phosphorylation only to a moderate extent
- in vitro CK2 phosphorylation (autoradiography) [1]: both S114E and S24,114E mutations significantly increased CK2 phosphorylation compared with CK2 phosphorylation of rPEDF
- in vitro CK2 phosphorylation ([γ32P]-ATP, autoradiography) [2]: Both rPEDF and plPEDF were phosphorylated by CK2; CK2 phosphorylation of rPEDF was stronger than the phosphorylation of plPEDF
- in vitro CK2 phosphorylation (autoradiography) (rPEDF variant S114A): The S114A variant significantly reduced CK2 phosphorylation
- in vitro CK2 phosphorylation (autoradiography) [3]: the double variant S24,114A almost completely abolished this phosphorylation
- in vitro CK2 phosphorylation ([γ32P]-ATP, autoradiography) [4]: Both rPEDF and plPEDF were phosphorylated by CK2; CK2 phosphorylation of rPEDF was stronger than the phosphorylation of plPEDF

Substance: catalytic subunit of PKA
- in vitro PKA phosphorylation (autoradiography) (rPEDF variant S227E): Mutation of Ser227 to Ala or to Glu completely abolished PKA phosphorylation
- in vitro PKA phosphorylation ([γ32P]-ATP, heparin, autoradiography) [2]: Both rPEDF and plPEDF were equally phosphorylated by PKA in the presence of heparin
- in vitro PKA phosphorylation (autoradiography) (rPEDF variant S227A): Mutation of Ser227 to Ala or to Glu completely abolished PKA phosphorylation
- in vitro PKA phosphorylation ([γ32P]-ATP, heparin, autoradiography) [4]: Both rPEDF and plPEDF were equally phosphorylated by PKA in the presence of heparin
